# Experimental data as given in US20150284465A1 (Chugai, published 2015).
# Positions count from the first letter of the chain named.
# T1: SR344 (N-terminal 1st to 344th amino acids of soluble human IL-6R) (human, UniProt P08887 20-344, limits assumed)
# T1 construct: also called recombinant soluble IL-6 receptor; soluble human IL-6 receptor
# T1 sequence (looked up): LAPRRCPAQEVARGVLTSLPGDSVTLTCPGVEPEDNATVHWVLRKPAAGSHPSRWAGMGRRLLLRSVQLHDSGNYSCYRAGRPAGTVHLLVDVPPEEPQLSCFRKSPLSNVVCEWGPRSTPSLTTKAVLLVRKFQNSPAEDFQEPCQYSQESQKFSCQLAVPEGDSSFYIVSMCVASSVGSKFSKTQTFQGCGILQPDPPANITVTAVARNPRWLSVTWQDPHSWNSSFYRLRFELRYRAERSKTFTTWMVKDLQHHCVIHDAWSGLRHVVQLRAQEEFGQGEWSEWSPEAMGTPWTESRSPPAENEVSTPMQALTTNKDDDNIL
# T2: soluble human IL-31 receptor (human, UniProt Q8NI17 20-514)
# T2 construct: also called soluble NR10; NR10
# T2 sequence: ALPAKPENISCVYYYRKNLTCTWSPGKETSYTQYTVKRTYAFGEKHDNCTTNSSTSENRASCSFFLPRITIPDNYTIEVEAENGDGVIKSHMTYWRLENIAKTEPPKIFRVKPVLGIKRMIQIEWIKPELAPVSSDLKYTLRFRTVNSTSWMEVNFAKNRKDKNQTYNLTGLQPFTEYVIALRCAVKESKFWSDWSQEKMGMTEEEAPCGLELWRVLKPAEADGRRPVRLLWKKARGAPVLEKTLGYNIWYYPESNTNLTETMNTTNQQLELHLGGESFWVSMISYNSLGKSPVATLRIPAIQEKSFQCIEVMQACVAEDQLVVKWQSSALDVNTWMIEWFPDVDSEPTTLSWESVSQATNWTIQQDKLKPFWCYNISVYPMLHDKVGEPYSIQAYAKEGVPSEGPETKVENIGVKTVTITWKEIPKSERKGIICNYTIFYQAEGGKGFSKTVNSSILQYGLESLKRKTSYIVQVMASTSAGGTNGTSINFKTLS
# T3: recombinant human IL-6R sR (R&D systems) (human, UniProt P08887 20-358)
# T3 construct: Bought soluble receptor; also called rhIL-6sR; rhIL-s6R
# T3 sequence (looked up): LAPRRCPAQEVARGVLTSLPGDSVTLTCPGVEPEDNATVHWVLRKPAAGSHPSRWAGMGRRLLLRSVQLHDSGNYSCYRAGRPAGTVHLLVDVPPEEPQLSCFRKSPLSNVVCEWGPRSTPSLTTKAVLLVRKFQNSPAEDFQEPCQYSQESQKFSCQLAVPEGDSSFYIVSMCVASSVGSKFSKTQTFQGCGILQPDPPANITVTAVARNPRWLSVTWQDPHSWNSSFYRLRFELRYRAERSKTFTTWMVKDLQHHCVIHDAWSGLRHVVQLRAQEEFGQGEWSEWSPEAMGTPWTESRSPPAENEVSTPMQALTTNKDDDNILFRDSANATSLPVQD
# B1: H96/PF1L-IgG1 (antibody, V domains shown)
# VH: QVQLQESGPGLVKPSETLSLTCAVSGYSISDDHAWSWVRQPPGEGLEWIGYISYSGITNYNPSLKGRVTISRDNSKNTLYLQMNSLRAEDTAVYYCARVLARITAMDYWGEGTLVTVSS
# VL: DIQMTQSPSSLSASVGDSVTITCQASQDISSYLNWYQQKPGKAPELLIYYGSELHSGVPSRFSGSGSGTDFTFTISSLEAEDAATYYCGQGNRLPYTFGQGTKVEIE
# B2: 31R_H2L2 (antibody, V domains shown)
# VH: QVQLVQSGAEVKKPGASVKVSCKASGYTFTGYIMNWVRQAPGQGLEWMGLINPYNGGTSYNQQFQDRVTITADESTSTAYMELSSLRSEDTAVYYCARDGYDDGPYTMDYWGQGTLVTVSS
# VL: DIQMTQSPSSLSASVGDRVTITCQTSEDIYSFLAWYQQKPGKAPKLLIYNAQTEAQGVPSRFSGSGSGTDFTLTISSLQPEDFATYYCQHHYESPLTFGGGTKVEIKR
# B3: 31R_H3L2 (antibody, V domains shown)
# VH: B2 VH with Q62D
# VL: B2 VL
# B4: 31R_H1L1 (antibody)
# heavy: QVQLVQSGAEVKKPGASVKVSCKASGYTFTGYIMNWVRQAPGQGLEWMGLINPYNGGTSYNQKFKGRVTITADESTSTAYMELSSLRSEDTAVYYCARDGYDDGPYTMDYWGQGTLVTVSSASTKGPSVFPLAPSSKSTSESTAALGCLVKDYFPEPVTVSWNSGALTSGVHTFPAVLQSSGLYSLSSVVTVPSSNFGTQTYTCNVDHKPSNTKVDKTVERKSCVECPPCPAPPVAGPSVFLFPPKPKDTLMISRTPEVTCVVVDVSHEDPEVQFNWYVDGVEVHNAKTKPREEQFNSTFRVVSVLTVVHQDWLNGKEYKCKVSNKGLPAPIEKTISKTKGQPREPQVYTLPPSREEMTKNQVSLTCLVKGFYPSDIAVEWESNGQPENNYKTTPPMLDSDGSFFLYSKLTVDKSRWQQGNVFSCSVMHEALHNHYTQKSLSLSPGK
# light: DIQMTQSPSSLSASVGDRVTITCRTSENIYSFLAWYQQKPGKAPKLLIYNAKTLAKGVPSRFSGSGSGTDFTLTISSLQPEDFATYYCQHHYESPLTFGGGTKVEIKRTVAAPSVFIFPPSDEQLKSGTASVVCLLNNFYPREAKVQWKVDNALQSGNSQESVTEQDSKDSTYSLSSTLTLSKADYEKHKVYACEVTHQGLSSPVTKSFNRGEC
# notes: Anti-human IL-31 receptor antibody
# B5: RDC-5 (antibody, V domains shown)
# VH: QVQLQESGPGLVRPSQTLSLTCTVSGYSITSDHAWSWVRQPPGRGLEWIGYISYSGITTYNPSLKSRVTMLRDTSKNQFSLRLSSVTAADTAVYYCARVLARITAMDYWGQGSLVTVSS
# VL: DIQMTQSPSSLSASVGDRVTITCRASQDISSYLNWYQQKPGKAPKLLIYYTSRLHSGVPSRFSGSGSGTDFTFTISSLQPEDIATYYCQQGNTLPYTFGQGTKVEIK
# notes: also called RDC-5H/L(WT)
# B6: RDC-3 (antibody, V domains shown)
# VH: B5 VH with V99I, I103A
# VL: B5 VL
# notes: also called RDC-3H/L(WT)
# B7: RDC-4 (antibody, V domains shown)
# VH: B5 VH with V99T, I103A
# VL: B5 VL
# notes: also called RDC-4H/L(WT)
# B8: RDC-6 (antibody, V domains shown)
# VH: B5 VH with V99I
# VL: B5 VL
# notes: also called RDC-6H/L(WT)
# B9: RDC-2 (antibody, V domains shown)
# VH: B5 VH with I103A
# VL: B5 VL
# notes: also called RDC-2H/L(WT)
# B10: RDC-7 (antibody, V domains shown)
# VH: B5 VH with V99T
# VL: B5 VL
# notes: also called RDC-7H/L(WT)
# B11: RD-28 (antibody, V domains shown)
# VH: B5 VH with V99S, I103T
# VL: B5 VL with Q89G
# B12: RDC-11 (antibody, V domains shown)
# VH: B5 VH with V99S, I103T
# VL: B5 VL with Q89G, T93R
# notes: also called H(WT)/RDC-11L
# B13: RDC-8 (antibody, V domains shown)
# VH: B5 VH with V99L
# VL: B5 VL
# notes: also called RDC-8H/L(WT)
# Target: T1, SR344 (N-terminal 1st to 344th amino …)
# Experiment: SPR (Biacore T100), Protein A/G capture, SR344 at 0, 0.36 and 1.4 µg/ml, 15 min dissociation, 37 C
# Experimental: This measurement was carried out under the same conditions described in Example 2. The running buffer used was HBS-EP+, and the flow rate was 20 μl/min. Each antibody was prepared so that about 100 RU of the antibody was bound to Protein A/G. SR344 was prepared at 0, 0.065, 0.131, and 0.261 μg/ml using HBS-EP+ and used as an analyte. In the first step of the measurement, the antibody in solution was bound to Protein A/G, and the analyte solution was allowed to interact therewith. After three minutes of interaction, the solution was switched to HBS-EP+, and the dissociation phase was monitored for 10 or 15 minutes. After measurement of the dissociation phase, the sensor chip was regenerated by washing with 10 μl of 10 mM glycine-HCl (pH 1.5). The association, dissociation, and regeneration constitute one analysis cycle. Each antibody was measured according to this cycle.
# The Tm of purified H96/PF1L-IgG1 was determined by the method described in Example 5. The affinity measurement was carried out under essentially the same conditions used in Example 5. Note that the concentration of SR344 was adjusted to 0, 0.36, and 1.4 μg/ml, and the dissociation phase was monitored for 15 minutes.
Kd [nM],koff [s⁻¹],kon [M⁻¹ s⁻¹],Binder
0.039,4.8e-05,1.2e+06,B1

# Target: T2, soluble human IL-31 receptor
# Experiment: SPR (Biacore T100), antibody captured on Protein A, soluble human IL-31 receptor as analyte
# Experimental: The antigen-antibody reaction kinetics between anti-human IL-31 receptor antibody and soluble human IL-31 receptor was analyzed using Biacore T100 (GE Healthcare Biosciences). The antigen-antibody interaction was measured by immobilizing rec-Protein A (Zymed) (hereinafter “Protein A”) onto a sensor chip, capturing an antibody with the immobilized Protein A, and then reacting the antibody with the antigen as an analyte using a method known to those skilled in the art. […] In the first step of the measurement, the antibody in solution was bound to Protein A/G, and the analyte solution was allowed to interact with the antibody. After three minutes of interaction, the solution was switched to HBS-EP+, and the dissociation phase was monitored for five minutes. After measurement of the dissociation phase, the sensor chip was regenerated by washing with 10 μl of 10 mM glycine-HCl (pH 1.5). The association, dissociation, and regeneration constitute one analysis cycle. Each antibody was measured according to this cycle. The obtained sensorgrams were kinetically analyzed using the Biacore-specific data analysis software, Biacore T100 Evaluation Software (GE Healthcare Biosciences).
Kd [nM],koff [s⁻¹],kon [M⁻¹ s⁻¹],Binder
3.9,0.0016,420000,B2
3.6,0.0016,440000,B3
3.3,0.0012,370000,B4

# Target: T3, recombinant human IL-6R sR (R&D systems)
# Experiment: SPR (Biacore T100), antibody captured on Protein A, rhIL-6sR as analyte, 25 C
# Experimental: The antigen-antibody interaction was measured by immobilizing 4,400 to 5,000 RU of rec-Protein A (Zymed) immobilized onto a sensor chip by the amine coupling method, binding various antibodies onto the chip, and then flowing the antigen over the chip as an analyte. For the antigen, various concentrations of rhIL-6sR were used. All measurements were carried out at 25° C. The kinetic parameters, association rate constant kₐ (1/Ms) and dissociation rate constant kd (1/s) were calculated from the sensorgrams obtained by measurement. Then, KD (M) was determined based on the rate constants. The respective parameters were determined using Biacore T100 Evaluation Software (Biacore).
Kd [nM],koff [s⁻¹],kon [M⁻¹ s⁻¹],Binder
0.022,2.8e-05,1.2e+06,B5
0.037,3.7e-05,1e+06,B6
0.027,2.9e-05,1.1e+06,B7
0.029,3.5e-05,1.2e+06,B8
0.022,2.5e-05,1.1e+06,B9
0.038,4.2e-05,1.1e+06,B10
0.12,0.00011,940000,B11
0.065,7e-05,1.1e+06,B12
0.025,3.6e-05,1.4e+06,B13
